In one series the target is PTEN (rPTEN) (UniProt P60484 1-403). Kind of series: EMSA; rPTEN alone; 10 mM Tris pH 8.0, 1 mM EDTA, 8% glycerol, 10 ul, ~150 ng fluorescein-labelled DNA, 1 h at room temperature; 4-20% Tris-glycine native gel, pH 8.3. For orientation: In EMSA bound probe runs differently from free probe, usually more slowly.
Series [1] has as its target T1, SRF (rSRF) (UniProt P11831 1-508).
T1 sequence: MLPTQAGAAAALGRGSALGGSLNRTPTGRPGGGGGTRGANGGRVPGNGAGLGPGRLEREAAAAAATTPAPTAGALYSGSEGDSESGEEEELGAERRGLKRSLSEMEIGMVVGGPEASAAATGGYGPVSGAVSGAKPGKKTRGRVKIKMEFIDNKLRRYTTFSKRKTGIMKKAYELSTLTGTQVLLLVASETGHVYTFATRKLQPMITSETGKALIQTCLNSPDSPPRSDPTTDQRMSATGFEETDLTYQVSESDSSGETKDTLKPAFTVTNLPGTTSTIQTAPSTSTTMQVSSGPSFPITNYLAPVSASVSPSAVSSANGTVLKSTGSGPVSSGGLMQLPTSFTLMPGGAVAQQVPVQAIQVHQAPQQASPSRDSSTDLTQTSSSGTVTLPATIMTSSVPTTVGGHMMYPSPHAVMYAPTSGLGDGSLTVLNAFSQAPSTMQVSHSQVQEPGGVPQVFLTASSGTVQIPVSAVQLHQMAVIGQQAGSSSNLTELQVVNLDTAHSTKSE
Briefly: EMSA; two bands at 1 ul rSRF; single lower mobility band at saturating 3 ul; 10 mM Tris pH 8.0, 1 mM EDTA, 8% glycerol, 10 ul, ~150 ng fluorescein-labelled DNA, 1 h at room temperature; 4-20% Tris-glycine native gel, pH 8.3.

In series [2] the target is T2, SRF (rSRF);PTEN (rPTEN) (;, UniProt P11831;P60484 1-508;1-403, |). Kind of series: EMSA, supershift and western blot of EMSA; higher mobility complex than rSRF alone; supershifted by PTEN or SRF antibody; 10 mM Tris pH 8.0, 1 mM EDTA, 8% glycerol, 10 ul, ~150 ng fluorescein-labelled DNA, 1 h at room temperature; 4-20% Tris-glycine native gel, pH 8.3.
Series [3] deals with T1, SRF (rSRF). Briefly: EMSA; 10 mM Tris pH 8.0, 1 mM EDTA, 8% glycerol, 10 ul, ~150 ng fluorescein-labelled DNA, 1 h at room temperature; 4-20% Tris-glycine native gel, pH 8.3.
The target in series [4] is T2, SRF (rSRF);PTEN (rPTEN). Kind of series: EMSA; lower mobility complex on adding rPTEN; 10 mM Tris pH 8.0, 1 mM EDTA, 8% glycerol, 10 ul, ~150 ng fluorescein-labelled DNA, 1 h at room temperature; 4-20% Tris-glycine native gel, pH 8.3.

B1: CArG A+B 95-bp probe (Acta2) (dsDNA)
DNA 1: AATTCTGGGGTGTATCTTGCCCTATATGGGATATCGCTCTGACCGTTAACTAGGACTAGCTGAGGGTAGCCTTGTTTGGCTGCATCTGTTTCTTTTCGGCTAGC
DNA 2: GCTAGCCGAAAAGAAACAGATGCAGCCAAACAAGGCTACCCTCAGCTAGTCCTAGTTAACGGTCAGAGCGATATCCCATATAGGGCAAGATACACCCCAGAATT
Turning to B1, the binding result is listed as “no binding” in the series with PTEN (rPTEN), “binds” with SRF (rSRF) [1] and “binds” with SRF (rSRF);PTEN (rPTEN) [2].

B2: CArG B 20-bp probe (Acta2) (dsDNA)
DNA 1: GAGGTCCCTATATGGTTGTG
DNA 2: CACAACCATATAGGGACCTC
As to B2, the binding result with SRF (rSRF) [3] and with SRF (rSRF);PTEN (rPTEN) [4] was “binds” throughout.
